Assay results as given in PMC4367279, “Comparisons with Amyloid-β Reveal an Aspartate Residue That Stabilizes Fibrils of the Aortic Amyloid Peptide Medin*” (The Journal of Biological Chemistry, 2015).

Molecular target: medin D25N, recombinant (human)
Experiment: thioflavin T fluorescence (aggregation kinetics); 20 uM medin, 20 uM ThT, 30 C, no agitation, 96-well plate, triplicate; 20 mM sodium phosphate, 150 mM NaCl, pH 7.4; sigmoidal fit, slope 1/tau is the rate of polymerization; self-assembly into ThT-responsive aggregates

rate of polymerization (ThT fit): 1.43 h⁻¹
Substance: medin D25N, recombinant (peptide)
